# In US20260167699A1 (Chugai, published 2026):
# Numbering of substitutions follows the chain as printed.
# T1: FcγRIIb (human, UniProt P31994 43-217)
# T1 construct: extracellular domain; also called 2b
# T1 sequence: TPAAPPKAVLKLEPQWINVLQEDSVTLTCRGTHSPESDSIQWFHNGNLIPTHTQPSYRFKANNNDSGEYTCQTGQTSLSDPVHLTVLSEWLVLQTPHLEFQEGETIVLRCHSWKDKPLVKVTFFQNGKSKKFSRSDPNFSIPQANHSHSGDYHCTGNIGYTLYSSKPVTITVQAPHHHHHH
# T2: FcγRIIa(H) (human, UniProt P12318 34-217)
# T2 construct: extracellular domain; also called FcγRIIa H type; 2aH
# T2 sequence: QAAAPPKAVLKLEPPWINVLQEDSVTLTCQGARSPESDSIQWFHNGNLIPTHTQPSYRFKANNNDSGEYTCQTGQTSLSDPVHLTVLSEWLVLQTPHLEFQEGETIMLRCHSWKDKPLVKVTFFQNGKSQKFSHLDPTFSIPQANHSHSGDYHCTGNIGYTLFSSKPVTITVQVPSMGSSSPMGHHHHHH
# T3: FcγRIIa(R) (human, UniProt P12318 34-217)
# T3 construct: extracellular domain; also called FcγRIIa R type; 2aR
# T3 sequence: T2 sequence with H134R
# T4: FcγRIIb extracellular domain, C-terminal His tag (human, UniProt P31994 43-217)
# T4 construct: extracellular domain; also called 2b
# T4 sequence: T1 sequence
# T5: FcγRIIa(R) extracellular domain, C-terminal His tag (human, UniProt P12318 34-217)
# T5 construct: extracellular domain; also called 2aR
# T5 sequence: T2 sequence with H134R
# T6: FcγRIIa(H) extracellular domain, C-terminal His tag (human, UniProt P12318 34-217)
# T6 construct: extracellular domain; also called 2aH
# T6 sequence: T2 sequence
# B1: GpH7-A5/GpH7-B3 variant S239_03V/GpL16-k0 (antibody, human IgG1, kappa)
# heavy 1: not shown
# heavy 2: not shown
# light: DIVMTQSPLSLPVTPGEPASISCQASESLVHSNRNTYLHWYLQKPGQSPQLLIYKVSNRFSGVPDRFSGSGSGTDFTLKISRVEAEDVGVYYCSQNTHVPPTFGQGTKVEIERTVAAPSVFIFPPSDEQLKSGTASVVCLLNNFYPREAKVQWKVDNALQSGNSQESVTEQDSKDSTYSLSSTLTLSKADYEKHKVYACEVTHQGLSSPVTKSFNRGEC
# notes: heterodimerized IgG1, one H chain mutated; also called He Ab
# B2: GpH7-A5/GpH7-B3 variant S267_09D/GpL16-k0 (antibody, human IgG1, kappa)
# heavy 1: not shown
# heavy 2: not shown
# light: B1 light
# notes: as for B1
# B3: GpH7-A5/GpH7-B3 variant S267_01G/GpL16-k0 (antibody, human IgG1, kappa)
# heavy 1: not shown
# heavy 2: not shown
# light: B1 light
# notes: as for B1
# B4: GpH7-A5/GpH7-B3 variant S239_08L/GpL16-k0 (antibody, human IgG1, kappa)
# heavy 1: not shown
# heavy 2: not shown
# light: B1 light
# notes: as for B1
# B5: GpH7-A5/GpH7-B3 variant S239_19Q/GpL16-k0 (antibody, human IgG1, kappa)
# heavy 1: not shown
# heavy 2: not shown
# light: B1 light
# notes: as for B1
# B6: GpH7-A5/GpH7-B3 variant S239_10E/GpL16-k0 (antibody, human IgG1, kappa)
# heavy 1: not shown
# heavy 2: not shown
# light: B1 light
# notes: as for B1
# B7: GpH7-A5/GpH7-B3 variant S239_07I/GpL16-k0 (antibody, human IgG1, kappa)
# heavy 1: not shown
# heavy 2: not shown
# light: B1 light
# notes: as for B1
# B8: GpH7-A5/GpH7-B3 variant V266_07I/GpL16-k0 (antibody, human IgG1, kappa)
# heavy 1: not shown
# heavy 2: not shown
# light: B1 light
# notes: as for B1
# B9: GpH7-A5/GpH7-B3 variant S267_02A/GpL16-k0 (antibody, human IgG1, kappa)
# heavy 1: not shown
# heavy 2: not shown
# light: B1 light
# notes: as for B1
# B10: GpH7-A5/GpH7-B3 variant S267_10E/GpL16-k0 (antibody, human IgG1, kappa)
# heavy 1: not shown
# heavy 2: not shown
# light: B1 light
# notes: as for B1
# B11: GpH7-A5/GpH7-B3 variant S239_06M/GpL16-k0 (antibody, human IgG1, kappa)
# heavy 1: not shown
# heavy 2: not shown
# light: B1 light
# notes: as for B1
# B12: GpH7-A5/GpH7-B3 variant S239_09D/GpL16-k0 (antibody, human IgG1, kappa)
# heavy 1: not shown
# heavy 2: not shown
# light: B1 light
# notes: as for B1
# B13: GpH7-A5/GpH7-B3 variant V266_08L/GpL16-k0 (antibody, human IgG1, kappa)
# heavy 1: not shown
# heavy 2: not shown
# light: B1 light
# notes: as for B1
# B14: GpH7-A5/GpH7-B3 variant S267_19Q/GpL16-k0 (antibody, human IgG1, kappa)
# heavy 1: not shown
# heavy 2: not shown
# light: B1 light
# notes: as for B1
# B15: GpH7-A5/GpH7-B3 variant S239_14T/GpL16-k0 (antibody, human IgG1, kappa)
# heavy 1: not shown
# heavy 2: not shown
# light: B1 light
# notes: as for B1
# B16: GpH7-A5/GpH7-B3 variant V266_06M/GpL16-k0 (antibody, human IgG1, kappa)
# heavy 1: not shown
# heavy 2: not shown
# light: B1 light
# notes: as for B1
# B17: GpH7-A5/GpH7-B3 variant S239_18N/GpL16-k0 (antibody, human IgG1, kappa)
# heavy 1: not shown
# heavy 2: not shown
# light: B1 light
# notes: as for B1
# B18: GpH7-A5/GpH7-B3 variant V266_02A/GpL16-k0 (antibody, human IgG1, kappa)
# heavy 1: not shown
# heavy 2: not shown
# light: B1 light
# notes: as for B1
# B19: GpH7-A5/GpH7-B3 variant Q295_12R/GpL16-k0 (antibody, human IgG1, kappa)
# heavy 1: not shown
# heavy 2: not shown
# light: B1 light
# notes: heterodimerized IgG1, one H chain mutated; also called He Ab; copies: 1 + 1 + 2
# B20: GpH7-A5/GpH7-B3 variant P271_03V/GpL16-k0 (antibody, human IgG1, kappa)
# heavy 1: not shown
# heavy 2: not shown
# light: B1 light
# notes: as for B19
# B21: GpH7-A5/GpH7-B3 variant P271_08L/GpL16-k0 (antibody, human IgG1, kappa)
# heavy 1: not shown
# heavy 2: not shown
# light: B1 light
# notes: as for B19
# B22: GpH7-A5/GpH7-B3 variant P271_01G/GpL16-k0 (antibody, human IgG1, kappa)
# heavy 1: not shown
# heavy 2: not shown
# light: B1 light
# notes: as for B19
# B23: GpH7-A5/GpH7-B3 variant P271_07I/GpL16-k0 (antibody, human IgG1, kappa)
# heavy 1: not shown
# heavy 2: not shown
# light: B1 light
# notes: as for B19
# B24: GpH7-A5/GpH7-B3 variant P271_10E/GpL16-k0 (antibody, human IgG1, kappa)
# heavy 1: not shown
# heavy 2: not shown
# light: B1 light
# notes: as for B19
# B25: GpH7-A5/GpH7-B3 variant P271_02A/GpL16-k0 (antibody, human IgG1, kappa)
# heavy 1: not shown
# heavy 2: not shown
# light: B1 light
# notes: as for B19
# B26: GpH7-A5/GpH7-B3 variant P271_11K/GpL16-k0 (antibody, human IgG1, kappa)
# heavy 1: not shown
# heavy 2: not shown
# light: B1 light
# notes: as for B19
# B27: GpH7-A5/GpH7-B3 variant P271_12R/GpL16-k0 (antibody, human IgG1, kappa)
# heavy 1: not shown
# heavy 2: not shown
# light: B1 light
# notes: as for B19
# B28: GpH7-A5/GpH7-B3 variant P271_06M/GpL16-k0 (antibody, human IgG1, kappa)
# heavy 1: not shown
# heavy 2: not shown
# light: B1 light
# notes: as for B19
# B29: GpH7-A5/GpH7-B3 variant P271_09D/GpL16-k0 (antibody, human IgG1, kappa)
# heavy 1: not shown
# heavy 2: not shown
# light: B1 light
# notes: as for B19
# Target: T1, FcγRIIb
# Experiment: SPR (Biacore), binding relative to GpH7-A5/GpH7-B3/GpL16-k0 x100;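 also: surface plasmon resonance at 25 °C, antibody captured on a sensor chip and soluble FcγR flowed over it in HBS-EP+ running buffer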
# Protocol: (§1) The antibody of interest was analyzed for its interaction with FcγR using a BiaCore™ T100, BiaCore™ A100, or BiaCore™ 4000 surface plasmon resonance system (GE Healthcare Japan Corp.). The running buffer used was HBS-EP+ (GE Healthcare Japan Corp.). The assay temperature was set to 25° C. The sensor chips used were: a chip prepared by immobilizing antigenic peptides onto Series S Sensor Chip CM5 (GE Healthcare Japan Corp.) by the amine coupling method; a chip prepared by immobilizing antigenic peptides biotinylated in advance onto Series S Sensor Chip SA (certified) (GE Healthcare Japan Corp.) through their interaction; a chip prepared by immobilizing protein L (ACTIGEN, BioVision, Inc.) onto Series S Sensor Chip CM5 (GE Healthcare Japan Corp.); and a chip prepared by immobilizing protein A/G (Thermo Fisher Scientific K.K.) onto Series S Sensor Chip CM5 (GE Healthcare Japan Corp.). The antibody of interest was captured onto any of these chips and allowed to interact with FcγR diluted with a running buffer. The antibody captured on the chip was washed off through the reaction of 10 mM glycine-HCl (pH 1.5) to regenerate the chip, which was repetitively used.
row,He/Con 2b [%],Binder
1,110,B1
2,326,B2
3,110,B3
4,142,B4
5,87.3,B5
6,183,B6
7,108,B7
8,160,B8
9,256,B9
10,398,B10
11,102,B11
12,209,B12
13,248,B13
14,228,B14
15,98.6,B15
16,264,B16
17,121,B17
18,85.1,B18

# Target: T2, FcγRIIa(H)
# Experiment: as above
# Protocol: as §1
row,He/Con 2aH [%],Binder
1,88,B1
2,107,B2
3,72.1,B3
4,101,B4
5,80,B5
6,108,B6
7,88.5,B7
8,107,B8
9,121,B9
10,103,B10
11,95.4,B11
12,111,B12
13,106,B13
14,61.9,B14
15,95.9,B15
16,84.8,B16
17,91.1,B17
18,69.7,B18

# Target: T7, FcγRIa (human, UniProt P12314 16-292)
# T7 construct: extracellular domain; also called 1a
# T7 sequence (P12314 other isoform, or with tags, fused parts or gaps): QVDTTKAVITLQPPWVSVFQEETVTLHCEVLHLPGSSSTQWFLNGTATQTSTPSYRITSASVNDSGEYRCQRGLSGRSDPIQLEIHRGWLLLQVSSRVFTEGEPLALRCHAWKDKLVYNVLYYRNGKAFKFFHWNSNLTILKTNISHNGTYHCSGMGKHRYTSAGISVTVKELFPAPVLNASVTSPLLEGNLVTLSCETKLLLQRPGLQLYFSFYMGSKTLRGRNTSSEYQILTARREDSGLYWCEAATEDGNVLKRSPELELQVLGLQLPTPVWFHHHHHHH
# Experiment: as above
# Protocol: as §1
row,He/Con 1a [%],Binder
1,98.9,B1
2,106,B2
3,99.9,B3
4,103,B4
5,104,B5
6,108,B6
7,101,B7
8,96.1,B8
9,105,B9
10,102,B10
11,102,B11
12,104,B12
13,94.9,B13
14,99.2,B14
15,104,B15
16,96.5,B16
17,104,B17
18,93.8,B18

# Target: T3, FcγRIIa(R)
# Experiment: as above
# Protocol: as §1
row,He/Con 2aR [%],Binder
1,94.1,B1
2,186,B2
3,121,B3
4,114,B4
5,79.8,B5
6,127,B6
7,95.9,B7
8,129,B8
9,167,B9
10,188,B10
11,94.7,B11
12,129,B12
13,152,B13
14,145,B14
15,97.4,B15
16,161,B16
17,104,B17
18,88.8,B18

# Target: T4, FcγRIIb extracellular domain, …
# Experiment: SPR; He Ab vs HeCon Ab (GpH7-A5/GpH7-B3/GpL16-k0)=100;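 also: surface plasmon resonance at 25 °C with the test antibody captured on a sensor chip via antigenic peptide, protein L or protein A/G and FcγR flowed over as analyte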
row,He/Con 2b [%],Binder
1,73.1,B19
2,83.8,B20
3,115,B21
4,217,B22
5,86.1,B23
6,122,B24
7,98.7,B25
8,101,B26
9,96.9,B27
10,87,B28
11,135,B29

# Target: T8, FcγRIIIa extracellular domain, C-terminal His tag (human, UniProt P08637 17-208)
# T8 construct: extracellular domain; also called 3a
# T8 sequence (P08637 other isoform, or with tags, fused parts or gaps): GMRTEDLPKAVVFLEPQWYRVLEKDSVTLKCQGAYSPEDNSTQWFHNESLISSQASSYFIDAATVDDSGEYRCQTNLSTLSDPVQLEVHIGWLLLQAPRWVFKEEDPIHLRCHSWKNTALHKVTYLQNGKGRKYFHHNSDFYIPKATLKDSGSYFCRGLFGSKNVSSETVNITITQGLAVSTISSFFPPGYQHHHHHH
# Experiment: as above
row,He/Con 3a [%],Binder
1,73.2,B19
2,73.5,B20
3,74.5,B21
4,119,B22
5,80.2,B23
6,98.2,B24
7,83.7,B25
8,92.5,B26
9,87.6,B27
10,74,B28
11,97.7,B29

# Target: T5, FcγRIIa(R) extracellular domain, …
# Experiment: as above
row,He/Con 2aR [%],Binder
1,82.2,B19
2,85.8,B20
3,103,B21
4,143,B22
5,88,B23
6,102,B24
7,93.9,B25
8,97.3,B26
9,95.8,B27
10,87.3,B28
11,109,B29

# Target: T9, FcγRIa extracellular domain, C-terminal His tag (human, UniProt P12314 16-292)
# T9 construct: extracellular domain; also called 1a
# T9 sequence (P12314 other isoform, or with tags, fused parts or gaps): as the sequence (P12314 other isoform, or with tags, fused parts or gaps) above
# Experiment: as above
row,He/Con 1a [%],Binder
1,98.8,B19
2,101,B20
3,101,B21
4,103,B22
5,101,B23
6,101,B24
7,102,B25
8,101,B26
9,101,B27
10,101,B28
11,100,B29

# Target: T6, FcγRIIa(H) extracellular domain, …
# Experiment: as above
row,He/Con 2aH [%],Binder
1,96.4,B19
2,85.4,B20
3,99.4,B21
4,123,B22
5,94.1,B23
6,72.4,B24
7,88.4,B25
8,100,B26
9,100,B27
10,87.7,B28
11,80.4,B29
